Key:
[1] = molecular target: T1, chimeric dog-human CCR2B (Homo sapiens, UniProt P41597, A111V/A286I/C181V/C75S/D36S/E105G/E278K/F108L/F271S/G175R/G191S/G197A/G224A/G273N/G41A/I128T/I163V/I208V/I217V/I263L/I300V/I40V/I93L/K180T/K183I/K38R/L115S/L166M/L274V/L76M/L95I/L97F/N110E/N199K/N207S/N266S/P195Q/Q43G/R196Q/R240K/R243K/S101Y/T247V/T257A/T287M/V107L/V162G/V173L/V187F/V189S/V244L/Y188S/Y193Q/Y259N); test: FLIPR calcium mobilization agonist assay in CHO-K1 cells expressing chimeric dog-human CCR2B; type: cell-based
T1 construct: expressed in transfected cells
T1 sequence (P41597 1-360 isoform P41597-2 D36S/K38R/I40V/G41A/Q43G/C75S/L76M/I93L/L95I/L97F/S101Y/E105G/V107L/F108L/N110E/A111V/L115S/I128T/V162G/I163V/L166M/V173L/G175R/K180T/C181V/K183I/V187F/Y188S/V189S/G191S/Y193Q/P195Q/R196Q/G197A/N199K/N207S/I208V/I217V/G224A/R240K/R243K/V244L/T247V/T257A/Y259N/I263L/N266S/F271S/G273N/L274V/E278K/A286I/T287M/I300V): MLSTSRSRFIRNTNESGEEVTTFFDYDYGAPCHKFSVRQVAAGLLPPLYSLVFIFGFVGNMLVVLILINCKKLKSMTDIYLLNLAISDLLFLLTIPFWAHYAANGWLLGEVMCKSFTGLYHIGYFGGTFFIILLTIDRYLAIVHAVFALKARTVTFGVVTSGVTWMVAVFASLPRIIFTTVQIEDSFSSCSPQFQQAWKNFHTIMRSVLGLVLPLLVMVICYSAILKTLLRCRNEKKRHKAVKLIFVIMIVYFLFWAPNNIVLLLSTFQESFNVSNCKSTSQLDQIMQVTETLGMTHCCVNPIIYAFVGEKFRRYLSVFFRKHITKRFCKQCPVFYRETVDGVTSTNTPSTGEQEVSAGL
Method: The chimeric CCR2B/cDNA3.1 plasmid of Example 1 was expressed in CHO-K1 cells using the Lipofectamine-Plus reagent (Invitrogen, Carlsbad, Calif., USA) according to manufacturer's instructions, and the resulting stable cell lines following selection with the antibiotic G418 were assayed for MCP-1-dependent calcium mobilization in a FLIPR assay. Cells were plated at 15,000 per well in a 384-well assay plate one day prior to assay. Calcium-3 indicator dye (Molecular Devices, Sunnyvale, Calif., USA) was added 1 hr prior to assay, and cells were incubated at 37° C. For the agonist assay, human MCP-1 was added to cells, followed immediately by reading of calcium mobilization on the FLIPR. RFU counts (Max-Min) were recorded for each MCP-1 concentration assayed. For the antagonist assay, the antagonist was added to the cells 20 min prior to addition of MCP-1. The MCP-1 activation of calcium mobilization in CCR2B/CHOK1 cells of Example 2 was extended to include examination of the effects of mouse and canine MCP-1 (FIG. 4A). […] The qualitative similarity of the results in the CHOK1 cells expressing the chimeric receptor and THP-1 cells, with their endogenous expression of the human receptor, lends evidence that the chimeric receptor faithfully recapitulates the activation pharmacology of the native receptor.

[2] = molecular target: T2, human CCR2B (Homo sapiens, UniProt P41597); test: FLIPR calcium mobilization agonist assay in THP-1 cells; type: cell-based; conditions: endogenous human CCR2B expression
T2 construct: THP-1 cells, with their endogenous expression of the human receptor; endogenous in cells; host or cells: THP-1 (human monocyte cell line)
T2 sequence (P41597 1-360 isoform P41597-2): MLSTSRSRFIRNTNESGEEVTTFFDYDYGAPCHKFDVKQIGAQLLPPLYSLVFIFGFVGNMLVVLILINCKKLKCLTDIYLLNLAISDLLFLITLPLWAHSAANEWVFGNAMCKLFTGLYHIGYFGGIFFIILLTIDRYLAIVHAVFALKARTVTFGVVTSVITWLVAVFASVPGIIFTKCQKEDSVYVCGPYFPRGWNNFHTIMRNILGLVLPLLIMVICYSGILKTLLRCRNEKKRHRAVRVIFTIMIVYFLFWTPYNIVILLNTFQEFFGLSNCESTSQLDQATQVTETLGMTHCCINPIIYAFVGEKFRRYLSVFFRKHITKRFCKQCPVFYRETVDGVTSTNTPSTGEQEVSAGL

EC50 [1]	EC50 [2]	Substance
38 nM	30 nM	mouse MCP: mouse monocyte chemoattractant protein-1 (chemokine)
138 nM	53 nM	cMCP-1: canine monocyte chemoattractant protein-1 (chemokine)

From patent US7592156B2, “Synthetic dog/human chimeric C-C chemokine receptor 2B” (Wyeth, priority 2006, dated 2009)
